Measurements taken from patent US7534862.

Key:
[1] = molecular target: hyper-IL-6 (H-IL-6), a fusion protein comprising IL-6+sIL-6R (UniProt P08887); experiment: cell-based or functional assay
[2] = molecular target: IL-6/sIL-6R complex (100 ng/ml IL-6 + 50 ng/ml sIL-6R) (UniProt P05231); experiment: cell-based or functional assay
Chain of IL-6/sIL-6R complex (100 ng/ml IL-6 + 50 ng/ml sIL-6R) (P05231 30-212 limits assumed, chain 1 of 2): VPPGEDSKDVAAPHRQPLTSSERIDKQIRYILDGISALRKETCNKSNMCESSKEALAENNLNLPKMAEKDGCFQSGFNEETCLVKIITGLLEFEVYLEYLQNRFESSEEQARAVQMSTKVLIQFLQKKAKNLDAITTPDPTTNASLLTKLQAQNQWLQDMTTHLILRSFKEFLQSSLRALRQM
Chain of IL-6/sIL-6R complex (100 ng/ml IL-6 + 50 ng/ml sIL-6R) (P08887 20-358 limits assumed, chain 2 of 2, further chain): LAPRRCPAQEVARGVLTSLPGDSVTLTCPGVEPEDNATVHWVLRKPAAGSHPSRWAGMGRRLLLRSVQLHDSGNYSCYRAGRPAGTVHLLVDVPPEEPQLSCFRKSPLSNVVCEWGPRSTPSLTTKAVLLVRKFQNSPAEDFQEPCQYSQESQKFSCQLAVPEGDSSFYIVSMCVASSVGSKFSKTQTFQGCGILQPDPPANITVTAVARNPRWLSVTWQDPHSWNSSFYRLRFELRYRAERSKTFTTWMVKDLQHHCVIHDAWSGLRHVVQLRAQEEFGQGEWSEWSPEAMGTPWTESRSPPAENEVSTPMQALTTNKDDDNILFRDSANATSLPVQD

Chain of sgp130TagPEG (PEGylated sgp130Tag / sgp130(D1-D3)-His, forked PEG) (P40189 other isoform, or with tags, fused parts or gaps): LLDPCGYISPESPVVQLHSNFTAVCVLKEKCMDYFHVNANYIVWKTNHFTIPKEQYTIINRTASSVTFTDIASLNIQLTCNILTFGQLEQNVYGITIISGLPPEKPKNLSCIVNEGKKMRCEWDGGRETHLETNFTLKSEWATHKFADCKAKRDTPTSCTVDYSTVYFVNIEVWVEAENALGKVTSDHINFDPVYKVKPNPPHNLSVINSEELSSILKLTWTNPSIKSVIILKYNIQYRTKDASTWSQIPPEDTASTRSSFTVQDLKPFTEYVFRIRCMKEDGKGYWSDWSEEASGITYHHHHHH
Chain of hyper-IL-6 (H-IL-6), a fusion protein comprising IL-6+sIL-6R (P08887 20-323 limits assumed, chain 1 of 2): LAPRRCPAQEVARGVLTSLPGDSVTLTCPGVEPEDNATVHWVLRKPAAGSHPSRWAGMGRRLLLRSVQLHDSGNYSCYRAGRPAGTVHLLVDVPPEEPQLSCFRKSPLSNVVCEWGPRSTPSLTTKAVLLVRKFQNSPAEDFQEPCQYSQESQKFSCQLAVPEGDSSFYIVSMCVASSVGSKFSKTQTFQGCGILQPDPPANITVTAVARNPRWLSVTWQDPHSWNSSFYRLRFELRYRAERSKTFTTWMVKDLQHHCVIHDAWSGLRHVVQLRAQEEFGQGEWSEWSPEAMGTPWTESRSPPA
Chain of hyper-IL-6 (H-IL-6), a fusion protein comprising IL-6+sIL-6R (P05231 30-212 limits assumed, chain 2 of 2, further chain): as the sequence (P05231 30-212 limits assumed, chain 1 of 2) above
Chain of Human sgp130Fc (P40189 23-619 limits assumed): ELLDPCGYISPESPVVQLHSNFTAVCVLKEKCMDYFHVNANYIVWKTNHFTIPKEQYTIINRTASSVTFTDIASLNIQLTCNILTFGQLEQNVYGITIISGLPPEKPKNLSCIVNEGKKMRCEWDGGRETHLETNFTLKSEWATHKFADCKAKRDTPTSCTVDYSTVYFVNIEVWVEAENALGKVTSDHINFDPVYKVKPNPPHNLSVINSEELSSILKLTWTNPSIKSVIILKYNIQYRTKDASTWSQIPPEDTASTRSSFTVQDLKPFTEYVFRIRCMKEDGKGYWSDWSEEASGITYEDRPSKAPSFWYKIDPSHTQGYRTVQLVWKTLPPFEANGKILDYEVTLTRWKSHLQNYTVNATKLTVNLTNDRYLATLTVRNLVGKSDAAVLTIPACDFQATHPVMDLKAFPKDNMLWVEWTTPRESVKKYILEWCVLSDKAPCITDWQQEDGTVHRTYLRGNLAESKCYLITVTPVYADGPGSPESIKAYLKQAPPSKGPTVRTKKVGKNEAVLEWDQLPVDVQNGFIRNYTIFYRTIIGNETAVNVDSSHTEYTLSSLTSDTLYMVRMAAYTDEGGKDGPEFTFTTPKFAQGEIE

Substance | STAT3 activity (relative luciferase activity, pSTAT3-TA-Luc reporter in BAF/gp130 cells) at 10 ug/ml inhibitor, 5 ng/ml H-IL-6 (% of activity with H-IL-6 alone) [1] | factor of improvement over sgp130Fc in inhibition of BAF/gp130 proliferation (fold vs sgp130Fc) [2] | half-maximal [3H]-thymidine incorporation of BAF/gp130 cells (proliferation) [2] [ng/mL] | concentration giving half-maximal activation of STAT3 (H-IL-6-induced, luciferase reporter in BAF/gp130 cells) [1] [µg/mL] | efficiency relative to sgp130Fc in inhibition of H-IL-6-induced STAT3 activation (fold vs sgp130Fc) [1] | factor of improvement over sgp130Fc in inhibition of BAF/gp130 proliferation (fold vs sgp130Fc) [1] | half-maximal [3H]-thymidine incorporation of BAF/gp130 cells (proliferation) [1] [ng/mL]
Human sgp130Fc (from UniProt P40189 23-619) (Fc fusion) | 26 |  |  |  |  |  | 
sgp130TagPEG (PEGylated sgp130Tag / sgp130(D1-D3)-His, forked PEG) (from UniProt P40189 24-322) (receptor) | 19 | 1.5 to 3 | 1 to 5 | 2.5 | 2 to 3 | 1.5 to 3 | 1 to 5
